According to publication PMC5741731:

Columns and labels:
[1] = target: human mesothelin-Fc fusion protein (human)
[2] = target: human mesothelin-Fc fusion protein (human); assay: SPR; Biacore T200; human mesothelin-Fc captured via amine-coupled anti-human IgG (Fc) antibody on a CM5 chip; CA-125-His-Avi and anti-mesothelin Fab injected consecutively and conversely (dual injects, 120 s contact each); PBS with 0.05% Tween 20, dilution with 1 mg/ml BSA; 25 °C

Chain of human mesothelin-Fc fusion protein (human) (Q13421 other isoform, or with tags, fused parts or gaps): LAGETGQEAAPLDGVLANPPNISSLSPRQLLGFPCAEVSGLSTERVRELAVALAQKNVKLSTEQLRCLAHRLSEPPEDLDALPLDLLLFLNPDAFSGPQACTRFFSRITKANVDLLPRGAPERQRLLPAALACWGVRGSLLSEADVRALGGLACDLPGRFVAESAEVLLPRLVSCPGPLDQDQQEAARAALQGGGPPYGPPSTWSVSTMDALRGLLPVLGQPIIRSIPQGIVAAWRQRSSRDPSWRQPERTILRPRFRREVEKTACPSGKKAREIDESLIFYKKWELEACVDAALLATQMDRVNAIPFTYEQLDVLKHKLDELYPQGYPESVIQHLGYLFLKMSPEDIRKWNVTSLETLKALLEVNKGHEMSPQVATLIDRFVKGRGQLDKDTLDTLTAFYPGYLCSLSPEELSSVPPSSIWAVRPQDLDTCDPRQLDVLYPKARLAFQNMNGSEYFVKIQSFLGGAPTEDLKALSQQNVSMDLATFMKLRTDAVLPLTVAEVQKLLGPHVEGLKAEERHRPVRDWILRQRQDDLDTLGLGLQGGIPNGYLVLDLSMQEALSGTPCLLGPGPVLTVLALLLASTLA

Substance: CA-125-HisAvi (recombinant CA-125, extracellular portion) (domain or fragment)
- the same heterotypic cell adhesion after pre-incubation of the NCI-H358-MSLN clones with RG7787 Fab: no NCI-H358 cells recovered for clones 4D8, 4H3 and 1G2; clone 2C5 only partly blocked [1]: 10%
- occupancy of mesothelin at maximal saturation [2]: 70%
